Results published in patent publication US20240117018A1.

Key:
Assay in all cases: cell-based or functional assay
[1] = molecular target: HIV-1 Env of pseudovirus T250-4 (HIV-1)
[2] = molecular target: HIV-1 Env of pseudovirus CNE5 (HIV-1)
[3] = molecular target: HIV-1 Env of pseudovirus CNE8 (HIV-1)
[4] = molecular target: HIV-1 Env of pseudovirus HIV-16055-2.3 (HIV-1)
[5] = molecular target: HIV-1 Env of pseudovirus 62357_14_D3_4589 (HIV-1)
[6] = molecular target: HIV-1 Env of pseudovirus 1394C9G1(Rev-) (HIV-1)
[7] = molecular target: HIV-1 Env of pseudovirus ZM109F.PB4 (HIV-1)
[8] = molecular target: HIV-1 Env of pseudovirus Ce704809221_1B3 (HIV-1)
[9] = molecular target: HIV-1 Env of pseudovirus AC10.0.29 (HIV-1)
[10] = molecular target: HIV-1 Env of pseudovirus CAP45.2.00.G3 (HIV-1)
[11] = molecular target: HIV-1 Env of pseudovirus CNE52 (HIV-1)
[12] = molecular target: HIV-1 Env of pseudovirus 246F C1G (HIV-1)
[13] = molecular target: HIV-1 Env of pseudovirus ZM135M.PL10a (HIV-1)
[14] = molecular target: HIV-1 Env of pseudovirus 6240_08_TA5_4622 (HIV-1)
[15] = molecular target: HIV-1 Env of pseudovirus PVO.4 (HIV-1)
[16] = molecular target: HIV-1 Env of pseudovirus HIV-001428-2.42 (HIV-1)
[17] = molecular target: HIV-1 Env of pseudovirus TRJO4551.58 (HIV-1)
[18] = molecular target: HIV-1 Env of pseudovirus CAAN5342.A2 (HIV-1)
[19] = molecular target: HIV-1 Env of pseudovirus Ce0682_E4 (HIV-1)
[20] = molecular target: HIV-1 Env of pseudovirus Ce703010054_2A2 (HIV-1)
[21] = molecular target: HIV-1 Env of pseudovirus ZM233M.PB6 (HIV-1)
[22] = molecular target: HIV-1 Env of pseudovirus Ce2010_F5 (HIV-1)
[23] = molecular target: HIV-1 Env of pseudovirus WITO4160.33 (HIV-1)
[24] = molecular target: HIV-1 Env of pseudovirus 6244_13_B5_4576 (HIV-1)
[25] = molecular target: HIV-1 Env of pseudovirus Q769.d22 (HIV-1)
[26] = molecular target: HIV-1 Env of pseudovirus Q23.17 (HIV-1)
[27] = molecular target: HIV-1 Env of pseudovirus CAP210.2.00.E8 (HIV-1)
[28] = molecular target: HIV-1 Env of pseudovirus THRO4156.18 (HIV-1)
[29] = molecular target: HIV-1 Env of pseudovirus CNE30 (HIV-1)
[30] = molecular target: HIV-1 Env of pseudovirus HIV-16845-2.22 (HIV-1)
[31] = molecular target: HIV-1 Env of pseudovirus Ce1172_H1 (HIV-1)
[32] = molecular target: HIV-1 Env of pseudovirus 1054_07_TC4_1499 (HIV-1)
[33] = molecular target: HIV-1 Env of pseudovirus ZM247v1(Rev-) (HIV-1)
[34] = molecular target: HIV-1 Env of pseudovirus Ce0393_C3 (HIV-1)
[35] = molecular target: HIV-1 Env of pseudovirus 6535.3 (HIV-1)
[36] = molecular target: HIV-1 Env of pseudovirus MS208.A1 (HIV-1)
[37] = molecular target: HIV-1 Env of pseudovirus TRO.11 (HIV-1)
[38] = molecular target: HIV-1 Env of pseudovirus SC05_8C11_2344 (HIV-1)

Work on N49P19 (antibody) yielded a neutralization IC50 [1] greater than 50 µg/mL, a neutralization IC80 [1] greater than 50 µg/mL and a neutralization MPI [1] of 7. For the same substance, the neutralization IC50 [2] was 0.748 µg/mL, the neutralization IC80 [2] was 3.29 µg/mL and the neutralization MPI [2] was 100. It also gave a neutralization IC50 [3] of 0.772 µg/mL, a neutralization IC80 [3] of 4.84 µg/mL and a neutralization MPI [3] of 97.

Work on N49P9.1 (antibody) yielded a neutralization IC50 [1] greater than 50 µg/mL, a neutralization IC80 [1] greater than 50 µg/mL and a neutralization MPI [1] of 7. The neutralization IC50 [2] was 0.183 µg/mL, the neutralization IC80 [2] was 0.641 µg/mL and the neutralization MPI [2] was 100. For the same substance, the neutralization IC50 [3] was 0.228 µg/mL, the neutralization IC80 [3] was 0.921 µg/mL and the neutralization MPI [3] was 100.

For PG16 (antibody), the IC50 neutralization (TZM.bl) [2] was 0.008 µg/mL and the IC80 neutralization (TZM.bl) [2] was 0.033 µg/mL.

Substance N49P9 (antibody) has a neutralization IC50 [1] greater than 50 µg/mL, a neutralization IC80 [1] greater than 50 µg/mL and a neutralization MPI [1] of 25. The neutralization IC50 [3] was 0.056 µg/mL, the neutralization IC80 [3] was 0.26 µg/mL and the neutralization MPI [3] was 100.

3BNC117 (antibody) showed an IC50 [4] of 5.6 µg/mL, an IC80 [4] greater than 50 µg/mL and an IC50 [5] of 0.06 µg/mL. The IC80 [5] was 0.26 µg/mL, the IC50 [6] was greater than 50 µg/mL and the IC80 [6] was greater than 50 µg/mL. It also gave an IC50 [7] of 0.14 µg/mL, an IC80 [7] of 0.88 µg/mL and an IC50 [8] of 0.08 µg/mL. For the same substance, the IC80 [8] was 0.31 µg/mL, the IC50 [9] was 13.8 µg/mL and the IC80 [9] was greater than 50 µg/mL. For the same substance, the IC50 [10] was 3.88 µg/mL, the IC80 [10] was greater than 50 µg/mL and the IC50 [11] was 0.02 µg/mL. For the same substance, the IC80 [11] was 0.06 µg/mL, the IC50 [12] was 19.3 µg/mL and the IC80 [12] was greater than 50 µg/mL. The IC50 [13] was 0.03 µg/mL, the IC80 [13] was 0.13 µg/mL and the IC50 [14] was 0.33 µg/mL. It also gave an IC80 [14] of 1.17 µg/mL, an IC50 [15] of less than 0.09 µg/mL and an IC80 [15] of 0.19 µg/mL. It also gave an IC50 [16] of 0.003 µg/mL, an IC80 [16] of 0.02 µg/mL and an IC50 [17] of 0.05 µg/mL. For the same substance, the IC80 [17] was 0.19 µg/mL, the IC50 [18] was 0.42 µg/mL and the IC80 [18] was 1.51 µg/mL. The IC50 [19] was 0.03 µg/mL, the IC80 [19] was 0.15 µg/mL and the IC50 [20] was 0.37 µg/mL. It also gave an IC80 [20] of 1.67 µg/mL, an IC50 [21] of 0.13 µg/mL and an IC80 [21] of 0.85 µg/mL. It also gave an IC50 [22] of 0.05 µg/mL, an IC80 [22] of 0.21 µg/mL and an IC50 [23] of 0.01 µg/mL. The IC80 [23] was 0.04 µg/mL, the IC50 [24] was 0.04 µg/mL and the IC80 [24] was 0.15 µg/mL. For the same substance, the IC50 [25] was 0.01 µg/mL, the IC80 [25] was 0.04 µg/mL and the IC50 [26] was 0.005 µg/mL. It also gave an IC80 [26] of 0.02 µg/mL, an IC50 [27] of 17.2 µg/mL and an IC80 [27] greater than 50 µg/mL. It also gave an IC50 [28] of 1.76 µg/mL, an IC80 [28] of 10.1 µg/mL and an IC50 [29] of 0.26 µg/mL. The IC80 [29] was 0.85 µg/mL, the IC50 [30] was 27.5 µg/mL and the IC80 [30] was greater than 50 µg/mL. The IC50 [31] was greater than 50 µg/mL, the IC80 [31] was greater than 50 µg/mL and the IC50 [32] was 0.07 µg/mL. For the same substance, the IC80 [32] was 0.49 µg/mL, the IC50 [33] was greater than 50 µg/mL and the IC80 [33] was greater than 50 µg/mL. For the same substance, the IC50 [34] was 0.2 µg/mL, the IC80 [34] was 0.67 µg/mL and the IC50 [35] was 0.55 µg/mL. It also gave an IC80 [35] of 2.44 µg/mL, an IC50 [36] of 0.01 µg/mL and an IC80 [36] of 0.09 µg/mL. It also gave an IC50 [37] of less than 0.09 µg/mL, an IC80 [37] of less than 0.09 µg/mL and an IC50 [38] of 0.15 µg/mL. It also gave an IC80 [38] of 0.51 µg/mL.
